# Experimental data taken from article PMC2289477.
# Biological target: profilin from bovine brain (profilin of the high-affinity profilactin complex) (bovine (endogenous in bovine brain)) (UniProt P02584)
# UniProt P02584, sequence (P02584 whole entry, one chain of several): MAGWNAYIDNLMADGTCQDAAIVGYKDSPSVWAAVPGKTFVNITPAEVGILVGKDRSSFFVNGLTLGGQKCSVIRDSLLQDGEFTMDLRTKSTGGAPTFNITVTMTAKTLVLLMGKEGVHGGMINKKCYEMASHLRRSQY
substance,measurement,value
actin from bovine brain (actin of the high-affinity profilactin complex) (from UniProt P60712 1-375) (natural protein),stoichiometry N (actin/profilin molar ratio),1
